Experimental findings from PMC8535069 are described below.

For assay [1], the target named is Gαo with the Gln52 mutation. The assay can be described thus: co-IP; N2a cells co-transfected 24 h with Gαo-GFP constructs and His6-RGS19 (1:1) or mRFP-Gβ1/mRFP-Gγ3 (1:1:1); lysate in GST-lysis buffer (20 mM Tris-HCl pH 8.0, 1% Triton X-100, 10% glycerol in PBS); Gαo-GFP precipitated with GST-tagged GFP nanobody and glutathione Sepharose 4B overnight at 4 °C; Western blot against GFP, mRFP, His6; blots quantified, normalised to the precipitated Gαo, 5 experiments. For orientation: A western blot detects proteins with antibodies after separation by electrophoresis.

Assay [2] has as its target Gαo[Gln52Pro] and Gαo[Gln52Arg]. The assay is described as above.

Molecule “Gβ1γ3 heterodimer (mRFP-Gβ1 and mRFP-Gγ3) (from UniProt P62873 1-340; P63215 1-75) (complex)” yielded a fold reduction of co-precipitation against wild-type Gαo in assay [1] of 2 to 4 fold.

B1: His6-RGS19 (natural protein)
chain: MPTPHEAEKQITGPEEADRPPSMSSHDTASPAAPSRNPCCLCWCCCCSCSWNQERRRAWQASRESKLQPLPSCEVCATPSPEEVQSWAQSFDKLMHSPAGRSVFRAFLRTEYSEENMLFWLACEELKAEANQHVVDEKARLIYEDYVSILSPKEVSLDSRVREGINKKMQEPSAHTFDDAQLQIYTLMHRDSYPRFLSSPTYRALLLQGPSQSSSEA
B1 came in with a fold reduction of co-precipitation against wild-type Gαo in assay [2] of 2 to 3 fold.
